For assay [1], the target named is T1, human PVR on cells (endogenous on HepG2 and other human tumor cell lines); full-length hPVR overexpressed in … (human, UniProt P15151 21-417).
T1 sequence (looked up): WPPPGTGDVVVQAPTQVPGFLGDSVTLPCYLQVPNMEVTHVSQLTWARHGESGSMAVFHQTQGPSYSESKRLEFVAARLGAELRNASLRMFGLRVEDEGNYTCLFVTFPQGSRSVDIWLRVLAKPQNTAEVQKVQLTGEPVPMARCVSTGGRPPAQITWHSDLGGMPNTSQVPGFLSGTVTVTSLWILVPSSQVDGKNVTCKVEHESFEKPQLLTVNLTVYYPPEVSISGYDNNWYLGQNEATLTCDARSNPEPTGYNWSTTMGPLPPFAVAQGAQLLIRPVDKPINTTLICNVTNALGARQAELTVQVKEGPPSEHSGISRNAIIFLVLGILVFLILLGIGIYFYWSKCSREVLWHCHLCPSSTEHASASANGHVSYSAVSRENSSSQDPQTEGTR
Kind of assay: cell-based or functional assay.

Assay [2] deals with T2, hNectin-2 on cells (CHO cells expressing hNectin-2); RPMI-8866 cells overexpressing hNectin-2; human tumor … (human, UniProt Q92692 32-538).
T2 construct: whole, on cells
T2 sequence (looked up): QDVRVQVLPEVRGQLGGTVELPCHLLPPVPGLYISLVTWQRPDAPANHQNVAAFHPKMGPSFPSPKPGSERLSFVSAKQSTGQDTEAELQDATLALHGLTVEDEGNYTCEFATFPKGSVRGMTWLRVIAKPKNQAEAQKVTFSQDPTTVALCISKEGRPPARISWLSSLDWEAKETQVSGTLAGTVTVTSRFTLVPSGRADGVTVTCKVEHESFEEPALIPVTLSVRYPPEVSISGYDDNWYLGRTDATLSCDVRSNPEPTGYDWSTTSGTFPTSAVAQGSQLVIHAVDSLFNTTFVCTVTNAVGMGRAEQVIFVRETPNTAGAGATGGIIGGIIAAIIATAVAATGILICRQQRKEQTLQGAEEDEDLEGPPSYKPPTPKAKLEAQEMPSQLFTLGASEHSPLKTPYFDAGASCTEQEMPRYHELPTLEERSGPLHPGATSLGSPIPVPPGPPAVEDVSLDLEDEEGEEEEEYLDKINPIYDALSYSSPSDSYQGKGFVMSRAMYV
Kind of assay: FACS on the CHO cells expressing hNectin-2 of FIG. 7C.

Assay [3] addresses T1, human PVR on cells (endogenous on HepG2 …). Kind of assay: cell-based or functional assay. The source holds these as a separate data set.
Assay [4] deals with T3, human PVR on cells (endogenous on HepG2 and other human tumor cell lines; full-length hPVR overexpressed in B16 cells) (human), P15151.
T3 chain: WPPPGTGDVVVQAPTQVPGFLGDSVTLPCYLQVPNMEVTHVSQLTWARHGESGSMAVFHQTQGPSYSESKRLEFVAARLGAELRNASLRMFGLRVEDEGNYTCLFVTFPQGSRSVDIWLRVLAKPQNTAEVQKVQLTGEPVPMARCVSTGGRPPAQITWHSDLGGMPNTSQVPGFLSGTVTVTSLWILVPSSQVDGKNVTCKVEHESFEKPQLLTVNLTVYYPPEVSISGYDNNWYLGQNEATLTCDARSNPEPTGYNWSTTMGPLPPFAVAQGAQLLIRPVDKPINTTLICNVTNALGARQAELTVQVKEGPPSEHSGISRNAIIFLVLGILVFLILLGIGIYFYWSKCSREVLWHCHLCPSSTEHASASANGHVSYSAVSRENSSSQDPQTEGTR
The assay can be described thus: FACS on B16-hPVR cells, anti-human-IgG APC detection. As to conditions: remark: other sources report otherwise.

B1: anti-PVR monoclonal antibody 5B9 (antibody, mouse IgG1, V domains shown)
VH: QVQLQQSGAELMKPGASVKISCKATGYTFSNYWIEWIKQRPGHGLEWIGEIFPGSGRINFNEKFKGKATFTADTSSDTTYMQLSSLTSADSAVYYCARTKIYGNSFDYWGQGTTLTVSP
VL: DIMMTQSHKFMSTSVGDRVNITCKASQDVGTAVVWYQQKPGQSPKLLIYWASSRHNGVPDRFTGSGSGTDFTLTISNVQSEDLSDYFCQQYSRYPLTFGAGTKLELK
notes: also called hPVR.09; PVR.09
For the molecule B1, in assay [1], the “Percentage of dead cells within 24 hrs relative to mIgG treated cells (MTT), A549” value turned out to be 25%; the “Percentage of dead cells within 24 hrs relative to mIgG treated cells (MTT), HCT-116” value was 22%; the “Percentage of dead cells within 24 hrs relative to mIgG treated cells (MTT), MDA-MB-231” value was 20%; the “Percentage of dead cells within 24 hrs relative to mIgG treated cells (MTT), Mel-624” value is 32%. Further, the binding result in assay [2] is on record as “no binding”.

B2: anti-PVR monoclonal antibody 4E5 (antibody, mouse IgG1, V domains shown)
VH: EVKLLESGGGLVQPGGSLKLSCAASGFDFSRYWMTWVRQAPGKGLEWIGEIHPDSSKINYTPSQKDKFIISRDNAKNTLFLQMSKVRFEDTALYFCARPDGNYNALDYWGQGTSVTVSS
VL: DIVMTQSHKFMSTSVGDRVSITCKASQDVGTAVTWYQQKPGQSPKLLIYWASTRHTGVPDRFTGSESGTDFTLTISDVQSEDLANYFCQQYSRYPYTFGGGTKLEIK
notes: also called hPVR.07; PVR.07
As to B2, the binding result in assay [2] is listed as “no binding”.

B3: anti-PVR monoclonal antibody 7D4 (antibody, mouse IgG1, V domains shown)
VH: EVQLQQSGPELVKPGASVKISCKTSGYTFTEYTMHWVKQSHGESLEWIGGIDPNNGGTNYNQNFKGKATLTVDKSSSTAYMELRSLTSEDSAVYYCAGVIPLEYWGQGTSVTVSS
VL: DIVMTQSQKFMSTSVGDRVSVTCKASQNVYTNVAWYQQKPGQSPKALIYSASYRYRGVPDRFTGSGSGTDFTLTISNVQSEDLADYFCQQYNSYPLAFGSGTKLEIK
notes: also called hPVR.01; PVR.01
With B3, in assay [3], the “NK cell killing of the human breast adenocarcinoma cell line MDA-MB-231 ([35S]-Methionine release, specific killing)” value amounted to 2 fold. Besides, in assay [2], the binding result is recorded as “no binding”.

B4: Human TIGIT-Fc, Q495A1 22-141 (Fc fusion, UniProt Q495A1 22-141, looked up, not shown: a dimerising Fc or GST)
chain: MMTGTIETTGNISAEKGGSIILQCHLSSTTAQVTQVNWEQQDQLLAICNADLGWHISPSFKDRVAPGPGLGLTLQSLTVNDTGEYFCIYHTYPDGTYTGRIFLEVLESSVAEHGARFQIP
Molecule B4 yielded a fold signal against DNAM-1-Fc in assay [4] of 2 to 4 fold.

The record behind these values is US20200040092A1 (YISSUM RESEARCH DEVELOPMENT COMPANY OF THE HEBREW …, published 2020).
